In experiment [1] the target is Arp3 (subunit of bovine Arp2/3 complex) (bovine, UniProt P61157 1-418). The experiment is described as follows: cryo-EM structure; Bovine Arp2/3 complex (9.0 uM) mixed with Cort_(1-76) (45 uM) in ATP-supplemented KMEI buffer (10 mM imidazole pH 7.0, 50 mM KCl, 2 mM MgCl2, 1 mM EGTA, 0.2 mM ATP), 0.0025% NP-40. As to conditions: both partners purified.
The target of experiment [2] is F-actin (skeletal α-actin, polymerized) (rabbit, UniProt P68135 1-377). As to the kind of experiment: co-sedimentation; increasing concentrations of cortactin constructs with constant F-actin (4 uM), ATP-supplemented KMEI buffer, 1 h at RT, 30 min at 278,800 g, SDS-PAGE densitometry. The settings on record: both partners purified.

B1: Cort_(1-76), cortactin N-terminal acidic domain (NTA, residues 1-76) (domain or fragment)
chain: MWKASAGHAVSITQDDGGADDWETDPDFVNDVSEKEQRWGAKTVQGSGHQEHINIHKLRENVFQEHQTLKEKELET
notes: mouse cortactin, UniProt Q60598, residues 1-76; the methods say mouse cDNA; Cloned between BamHI and EcoRI of pMAL-c6T; also called cortactin's N-terminal domain; source: E. coli ArticExpress (DE3), purified (amylose, TEV cleavage, Ni-NTA, size exclusion)
For B1, the binding result in experiment [1] is given as “binds”.

B2: Cort_(1-227) (domain or fragment)
chain: MWKASAGHAVSITQDDGGADDWETDPDFVNDVSEKEQRWGAKTVQGSGHQEHINIHKLRENVFQEHQTLKEKELETGPKASHGYGGKFGVEQDRMDRSAVGHEYQSKLSKHCSQVDSVRGFGGKFGVQMDRVDQSAVGFEYQGKTEKHASQKDYSSGFGGKYGVQADRVDKSAVGFDYQGKTEKHESQKDYSKGFGGKYGIDKDKVDKSAVGFEYQGKTEKHESQKD
notes: source: E. coli ArticExpress (DE3), purified (amylose, TEV cleavage, Ni-NTA, size exclusion)
As to B2, the binding result in experiment [2] was “binds”.

B3: Cort_(1-401) (domain or fragment)
chain: MWKASAGHAVSITQDDGGADDWETDPDFVNDVSEKEQRWGAKTVQGSGHQEHINIHKLRENVFQEHQTLKEKELETGPKASHGYGGKFGVEQDRMDRSAVGHEYQSKLSKHCSQVDSVRGFGGKFGVQMDRVDQSAVGFEYQGKTEKHASQKDYSSGFGGKYGVQADRVDKSAVGFDYQGKTEKHESQKDYSKGFGGKYGIDKDKVDKSAVGFEYQGKTEKHESQKDYVKGFGGKFGVQTDRQDKCALGWDHQEKLQLHESQKDYKTGFGGKFGVQSERQDSSAVGFDYKERLAKHESQQDYAKGFGGKYGVQKDRMDKNASTFEEVVQVPSAYQKTVPIEAVTSKTSNIRANFENLAKEREQEDRRKAEAERAQRMAKERQEQEEARRKLEEQARAKKQT
notes: mouse cortactin, UniProt Q60598, residues 1-401; source: E. coli ArticExpress (DE3), purified (amylose, TEV cleavage, Ni-NTA, size exclusion)
For the molecule B3, the binding result in experiment [2] is on record as “binds”.

B4: Cort_(1-79/154-401) (domain or fragment)
chain: MWKASAGHAVSITQDDGGADDWETDPDFVNDVSEKEQRWGAKTVQGSGHQEHINIHKLRENVFQEHQTLKEKELETGPKYSSGFGGKYGVQADRVDKSAVGFDYQGKTEKHESQKDYSKGFGGKYGIDKDKVDKSAVGFEYQGKTEKHESQKDYVKGFGGKFGVQTDRQDKCALGWDHQEKLQLHESQKDYKTGFGGKFGVQSERQDSSAVGFDYKERLAKHESQQDYAKGFGGKYGVQKDRMDKNASTFEEVVQVPSAYQKTVPIEAVTSKTSNIRANFENLAKEREQEDRRKAEAERAQRMAKERQEQEEARRKLEEQARAKKQT
notes: mouse cortactin, UniProt Q60598, residues 1-79, joined directly to residues 154-401; mouse cortactin, UniProt Q60598, residues 154-401; Internal deletion of residues 80-153; fragments ligated through overhangs coding residues 77-79; source: E. coli ArticExpress (DE3), purified (amylose, TEV cleavage, Ni-NTA, size exclusion)
For B4, the binding result in experiment [2] is “binds”.

The values are drawn from article PMC10613254, “Mechanism of synergistic activation of Arp2/3 complex by cortactin and WASP-family proteins” (Nature Communications, 2023).
